{"source": "the supplement of paper PMC11865577"}
{"test_system": "TO-3-N3-2 (biotin conjugate)", "test": "pull-down binding Z-score (relative to library population); higher = stronger binding", "details": "RNA library: Library-2", "method_in_brief": "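A heat-folded, dye-end-labelled (Cy5 or Cy3) RNA library (1 μg, phosphate/NaCl/KCl buffer) was exposed for 60 min at 25 °C to streptavidin beads holding 100 pmol of biotin-conjugated small molecule. RNA retained on the beads was eluted in hot SDS and hybridised to a DNA barcode microarray for 20 h at 55.5 °C. Binding scores were Z-scores against the library mean and standard deviation, calculated after subtracting beads alone and taking trimmed means of replicate probes.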"}
{"sequence": "GCGCAGCCAGAAACUGGCGGCGC [mismatch-AG]", "pull-down binding Z-score": -0.168}
{"sequence": "GCGCCGCCAGAAACUGGCAGCGC [mismatch-CA]", "pull-down binding Z-score": -0.524}
{"sequence": "GCGCCGCCAGAAACUGGCCGCGC [mismatch-CC]", "pull-down binding Z-score": -0.533}
{"sequence": "GCGCCGCCAGAAACUGGCUGCGC [mismatch-CU]", "pull-down binding Z-score": -0.0148}
{"sequence": "GCGCGGCCAGAAACUGGCAGCGC [mismatch-GA]", "pull-down binding Z-score": -0.798}
{"sequence": "GCGCGGCCAGAAACUGGCGGCGC [mismatch-GG]", "pull-down binding Z-score": -0.302}
{"sequence": "GCGCGGCCAGAAACUGGCUGCGC [mismatch-GU]", "pull-down binding Z-score": 0.0256}
{"sequence": "GCGCUACUGCAACGAUACCGAUACAAGCCUCACUCCCUUUCGGAUGGCUUAUUGUUGGCGUUGCACUUCUUGCUGUUUUUCAGAGCGC", "pull-down binding Z-score": 0.232}
{"sequence": "GCGCUGCCAGAAACUGGCAAAAGCGC [bulge-AAA]", "pull-down binding Z-score": -0.295}
{"sequence": "GCGCUGCCAGAAACUGGCAAAGCGC [bulge-AA]", "pull-down binding Z-score": -0.00126}
{"sequence": "GCGCUGCCAGAAACUGGCAAGCGC [bulge-A]", "pull-down binding Z-score": -0.541}
{"sequence": "GCGCUGCCAGAAACUGGCAGCGC [full-UA]", "pull-down binding Z-score": -0.274}
{"sequence": "GCGCUGCCAGAAACUGGCCAGCGC [bulge-C]", "pull-down binding Z-score": -0.512}
{"sequence": "GCGCUGCCAGAAACUGGCCCAGCGC [bulge-CC]", "pull-down binding Z-score": -0.288}
{"sequence": "GCGCUGCCAGAAACUGGCCCCAGCGC [bulge-CCC]", "pull-down binding Z-score": -0.182}
{"sequence": "GCGCUGCCAGAAACUGGCCGCGC [mismatch-UC]", "pull-down binding Z-score": -0.66}
{"sequence": "GCGCUGCCAGAAACUGGCGAGCGC [bulge-G]", "pull-down binding Z-score": -0.354}
{"sequence": "GCGCUGCCAGAAACUGGCGGAGCGC [bulge-GG]", "pull-down binding Z-score": -0.672}
{"sequence": "GCGCUGCCAGAAACUGGCGGCGC [mismatch-UG]", "pull-down binding Z-score": -0.0108}
{"sequence": "GCGCUGCCAGAAACUGGCGGGAGCGC [bulge-GGG]", "pull-down binding Z-score": 0.00655}
{"sequence": "GCGCUGCCAGAAACUGGCUAAGCGC [bulge-UA]", "pull-down binding Z-score": -0.353}
{"sequence": "GCGCUGCCAGAAACUGGCUAGCGC [bulge-U]", "pull-down binding Z-score": -0.328}
{"sequence": "GCGCUGCCAGAAACUGGCUCAGCGC [bulge-UC]", "pull-down binding Z-score": -0.576}
{"sequence": "GCGCUGCCAGAAACUGGCUGAGCGC [bulge-UG]", "pull-down binding Z-score": -0.0129}
{"sequence": "GCGCUGCCAGAAACUGGCUGCGC [mismatch-UU]", "pull-down binding Z-score": -0.405}
{"sequence": "GCGCUGCCAGAAACUGGCUUAAGCGC [bulge-UUA]", "pull-down binding Z-score": -0.252}
{"sequence": "GCGCUGCCAGAAACUGGCUUAGCGC [bulge-UU]", "pull-down binding Z-score": -0.0172}
{"sequence": "GCGCUGCCAGAAACUGGCUUCAGCGC [bulge-UUC]", "pull-down binding Z-score": -0.243}
{"sequence": "GCGCUGCCAGAAACUGGCUUGAGCGC [bulge-UUG]", "pull-down binding Z-score": 0.543}
{"sequence": "GCGCUGCCAGAAACUGGCUUUAGCGC [bulge-UUU]", "pull-down binding Z-score": -0.158}
{"sequence": "GCGCUUCAGCGUUCUUCGGAAUGUCGCGC", "pull-down binding Z-score": -0.453}
{"sequence": "GCGCUUUAGGUCUACACGGGCCGAAGCUAACGCGUUAAGCGC [3-way model-5_mrRNA]", "pull-down binding Z-score": 0.0632}
{"sequence": "GCUAAAGAUACUACUGAAGCCUUUGAAAAAAUGGUUUCACUACUUUCUGUUUUGC [SHAPE_invitro_SARS-CoV-2_Motif_217]", "pull-down binding Z-score": 0.0624}
{"sequence": "GCUAAAUUGUUACAUAAACCUAUUGUUUGGCAUGUUAACAAUGC [SHAPE_invitro_SARS-CoV-2_Motif_124]", "pull-down binding Z-score": -0.265}
{"sequence": "GCUAAAUUGUUACAUAAACCUAUUGUUUGGCAUGUUAACAAUGCAACUAAUAAAGCCACGUAUAAACCAAAUACCUGGUGUAUACGUUGUCUUUGGAGC", "pull-down binding Z-score": -0.0887}
{"sequence": "GCUAACAAACAUGCUGAUUUUGACACAUGGUUUAGCCAGCGUGGUGGUAGU", "pull-down binding Z-score": 0.101}
{"sequence": "GCUAGAAAAUCAGC [SHAPE_invivo_SARS-CoV-2_Motif_531]", "pull-down binding Z-score": 0.246}
{"sequence": "GCUAGCUCUUGGAGGUUCCGUGGCUAUAAAGAUAACAGAACAUUCUUGGAAUGCUGAUCUUUAUAAGCUCAUGGGACACUUCGCAUGGUGGACAGC", "pull-down binding Z-score": 0.121}
{"sequence": "GCUAGUCUUAAUGGAGUCACAUUAAUUGGAGAAGC", "pull-down binding Z-score": 0.112}
{"sequence": "GCUAGUGGGGGACAACCAAUCACUAAUUGUGUUAAGAUGUUGUGUACACACACUGGU", "pull-down binding Z-score": 0.649}
{"sequence": "GCUAUAUGAUGC [IAV_invivo_PA_3_Motif_14+IAV_invivo_PA_3_Motif_14]", "pull-down binding Z-score": -0.212}
{"sequence": "GCUAUCUAACCUUAACUUGCCUGGUUGUGAUGGU [SHAPE_invivo_SARS-CoV-2_Motif_361]", "pull-down binding Z-score": 0.311}
{"sequence": "GCUAUGCAAAUGGC", "pull-down binding Z-score": -0.527}
{"sequence": "GCUAUGGGUAUUAUUGCUAUGUCUGCUUUUGCAAUGAUGUUUGUCAAACAUAAGCAUGCAUUUCUCUGUUUGUUUUUGUUACCUUCUCUUGCCACUGUAGC", "pull-down binding Z-score": -0.526}
{"sequence": "GCUCACCGUGCCCAGUGAGC [IAV_invivo_M1_M2_7_Motif_5+IAV_invivo_M1_M2_7_Motif_5]", "pull-down binding Z-score": -0.154}
{"sequence": "GCUCAGGAUGGUAAUGCUGCUAUCAGC", "pull-down binding Z-score": -0.00388}
{"sequence": "GCUCUACAAGAUGCUUAUUACAGAGC", "pull-down binding Z-score": 0.467}
{"sequence": "GCUCUCUGAUGC [IAV_invivo_NP_5_Motif_10+IAV_invivo_NP_5_Motif_10]", "pull-down binding Z-score": -0.589}
{"sequence": "GCUGAAAUUGUUGACACUGUGAGUGCUUUGGUUUAUGAUAAUAAGCUUAAAGCACAUAAAGACAAAUCAGC", "pull-down binding Z-score": -0.129}
{"sequence": "GCUGACACUACUGAUGCUGUCCGUGAUCCACAGACACUUGAGAUUCUUGACAUUACACCAUGUUCUUUUGGUGGUGUCAGU [SHAPE_invivo_SARS-CoV-2_Multi_58_ComplexLevel_1]", "pull-down binding Z-score": -0.3}
{"sequence": "GCUGAGGCUUCUAAGAAGCCUCGGC", "pull-down binding Z-score": -0.475}
{"sequence": "GCUGAGUUGCCAUUCAGC [IAV_invivo_NA_6_Motif_18+IAV_invivo_NA_6_Motif_18]", "pull-down binding Z-score": -0.204}
{"sequence": "GCUGCACAAAAAGC [IAV_invivo_NP_5_Motif_13+IAV_invivo_NP_5_Motif_13]", "pull-down binding Z-score": -0.544}
{"sequence": "GCUGGCCUUGAAGCCCCUUUUCUCUAUCUUUAUGCUUUAGUCUACUUCUUGCAGAGUAUAAACUUUGUAAGAAUAAUAAUGAGGCUUUGGCUUUGC", "pull-down binding Z-score": -0.413}
{"sequence": "GCUGGUAAUGUUCAACUCAGGGUUAUUGGACAUUCUAUGC [SHAPE_invivo_SARS-CoV-2_Motif_203]", "pull-down binding Z-score": -0.104}
{"sequence": "GCUGGUCUGACUCACAUGAUGAUCUGGC [IAV_invivo_NP_5_Motif_8+IAV_invivo_NP_5_Motif_8]", "pull-down binding Z-score": -0.265}
{"sequence": "GCUGGUGCACUUGCCAGU [IAV_invivo_M1_M2_7_Motif_8+IAV_invivo_M1_M2_7_Motif_8]", "pull-down binding Z-score": -0.545}
{"sequence": "GCUGUAGUGUUACUAAUCCUUAUGACAGC", "pull-down binding Z-score": -0.242}
{"sequence": "GCUGUGAGUUGGAUACUUACCUG [U1snRNP5ss-13]", "pull-down binding Z-score": 0.194}
{"sequence": "GCUGUUGGUACCAAUUUACCUUUACAGC [SHAPE_invitro_SARS-CoV-2_Motif_335]", "pull-down binding Z-score": -0.037}
{"sequence": "GCUGUUUAAUAGGGGCUGAACAUGUCAACAACUCAUAUGAGUGUGACAUACCCAUUGGUGCAGGUAUAUGCGCUAGUUAUCAGACUCAGACUAAUUCUCCUCGGC", "pull-down binding Z-score": 0.183}
{"sequence": "GCUUCAAGAGAGC", "pull-down binding Z-score": -0.171}
{"sequence": "GCUUCCACAAGUGCUUUUGUGGAAACUGUGAAAGGUUUGGAUUAUAAAGCAUUCAAACAAAUUGUUGAAUCCUGUGGUAAUUUUAAAGUUACAAAAGGAAAAGC", "pull-down binding Z-score": -0.339}
{"sequence": "GCUUCCACUGAGAAGU [DMSMaPseq_invitro_SARS-CoV-2_Motif_384]", "pull-down binding Z-score": -0.576}
{"sequence": "GCUUCUAGAAAGUGAACUCGUAAUCGGAGCUGUGAUCCUUCGUGGACAUCUUCGUAUUGCUGGACACCAUCUAGGACGC", "pull-down binding Z-score": 0.191}
{"sequence": "GCUUGAAGUGGAGC [IAV_invivo_NS1_NEP_8_Motif_14+IAV_invivo_NS1_NEP_8_Motif_14]", "pull-down binding Z-score": -0.23}
{"sequence": "GCUUGCAUACGUAGACCAUUCUUAUGUUGUAAAUGCUGUUACGACCAUGUCAUAUCAACAUCACAUAAAUUAGUCUUGUCUGUUAAUCCGUAUGUUUGCAAUGC [DMSMaPseq_invitro_SARS-CoV-2_Motif_294]", "pull-down binding Z-score": -0.304}
{"sequence": "GCUUGGAGAAAAGC [SHAPE_invitro_SARS-CoV-2_Motif_326]", "pull-down binding Z-score": -0.278}
{"sequence": "GCUUGUCACACCGUUUCUAUAGAUUAGCUAAUGAGUGUGCUCAAGU", "pull-down binding Z-score": -0.356}
{"sequence": "GCUUUAGUCUACUUCUUGCAGAGUAUAAACUUUGUAAGAAUAAUAAUGAGGC [SHAPE_invitro_SARS-CoV-2_Motif_467]", "pull-down binding Z-score": -0.169}
{"sequence": "GCUUUCUUUGGC [IAV_invivo_NS1_NEP_8_Motif_2+IAV_invivo_NS1_NEP_8_Motif_2]", "pull-down binding Z-score": -0.505}
{"sequence": "GCUUUGAUAUGGAACGUUAAAGAUUUCAUGUCAUUGU", "pull-down binding Z-score": -0.217}
